Laboratory results as given in paper PMC3877065, “Ligand Recognition by the TPR Domain of the Import Factor Toc64 from Arabidopsis thaliana” (PLoS ONE, 2013).
Where no end group is shown, it is not given here.

T1: TPR domain of AtToc64 with a C-terminal hexa-histidine tag (AtToc64_TPR-H6) (Arabidopsis thaliana, UniProt Q9LVH5 474-589)
T1 chain: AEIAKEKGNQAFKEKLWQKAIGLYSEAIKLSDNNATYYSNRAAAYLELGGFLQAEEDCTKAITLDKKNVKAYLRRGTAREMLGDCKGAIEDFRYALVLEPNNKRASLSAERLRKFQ

T2: TPR domain of AtToc64 with a C-terminal hexa-histidine tag (AtToc64_TPR-H6) (Arabidopsis thaliana, UniProt Q9LVH5 474-589)
T2 construct: Toc64 (AtToc64) from Arabidopsis thaliana, TPR domain, residues 474-589 of the full-length protein (NP_188424, At3g17970); Cloned with NcoI/XhoI into pETM10; also called TPR domain of Toc64 from Arabidopsis thaliana; source: E. coli BL21(DE3), purified (Ni-NTA, size exclusion chromatography); not shown: His6, C-terminal, kept
T2 sequence (looked up): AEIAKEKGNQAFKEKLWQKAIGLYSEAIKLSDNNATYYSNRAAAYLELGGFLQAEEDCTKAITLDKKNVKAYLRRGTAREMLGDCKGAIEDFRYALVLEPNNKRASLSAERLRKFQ


Each molecule was assayed against T3, TPR domain of AtToc64 (AtToc64_TPR-H6) (Arabidopsis thaliana, UniProt Q9LVH5) (assay: biochemical). Details: not given.
T3 construct: The region encompassing the TPR domain of AtToc64 was composed of residues 474–589; made in house; host or cells: E. coli BL21(DE3)
Assay type: binding
Description: Peptides were dissolved in the superdex buffer at 6–14 mM concentration and 302 µL were titrated against 1.4 ml of protein at 0.1–0.3 mM in a VP-ITC Microcal Instrument (GE Healthcare). Titrations were carried out at 20°C using 30 injections of 10 µL each injected at interval of 200 seconds. Injections were continued beyond saturation levels to allow determination of the heats of ligand dilution. The non-linear least square curve-fitting algorithm (Microcal Origin) was used for data fitting. After subtraction of the heat of dilution, three floating variables: stoichiometry (N), binding constant (Kd) and change in enthalpy of interaction (ΔH) were obtained. For subsequent alanine scan experiments the stoichiometry was fixed at N = 1.

Molecule	Kd
CC[C@H](C)[C@H](N)C(=O)N[C@@H](CCC(=O)O)C(=O)N[C@@H](CCC(=O)O)C(=O)N[C@H](C(=O)N[C@@H](CC(=O)O)C(=O)O)C(C)C [IEEVD]	568 µM
CSCC[C@H](N)C(=O)N[C@@H](CCC(=O)O)C(=O)N[C@@H](CCC(=O)O)C(=O)N[C@H](C(=O)N[C@@H](CC(=O)O)C(=O)O)C(C)C [MEEVD]	800 µM
GPTAEEVD [GPTAEEVD]	4650 µM
GPTIEEVD [GPTIEEVD]	230 µM
TSRMEAVD [TSRMEAVD]	1910 µM
TSRMEEVA [TSRMEEVA]	1400 µM
TSRMEEVD [TSRMEEVD]	218 µM

Same assay, conditions: ITC alanine scanning, Table S1, stoichiometry fixed at N = 1, 20°C

Molecule	Kd
GPTIEAVD [Ala-substituted Hsp70 octapeptide]	No binding
GPTIEEAD [Ala-substituted Hsp70 octapeptide]	No binding
GPTIEEVA [Ala-substituted Hsp70 octapeptide]	No binding
TSRMAEVD [Ala-substituted Hsp90 octapeptide]	No binding*

Same assay, conditions: ITC, Figure 4, alanine scanning of octapeptides; stoichiometry fixed at N = 1 for alanine scan; 20°C

Molecule	Kd
TSRMAEVD [Ala-substituted Hsp90 octapeptide]	No binding
TSRMEEAD [Ala-substituted Hsp90 octapeptide]	No binding

Molecular target: T1, TPR domain of AtToc64 with a C-terminal …
Assay: ITC
Details: not given

Molecule	Kd
GPTAEEVD [Hsp70 C-terminal octapeptide, Ile120 to Ala (GPTAEEVD)]	4600 µM
TSRAEEVD [Hsp90 C-terminal octapeptide, Met120 to Ala (TSRAEEVD)]	1080 µM
TSRMEAVD [Hsp90 C-terminal octapeptide, Glu122 to Ala (TSRMEAVD)]	1900 µM
TSAMEEVD [Hsp90 C-terminal octapeptide, Arg119 to Ala (TSAMEEVD)]	100 µM
GATIEEVD [Hsp70 C-terminal octapeptide, Pro118 to Ala (GATIEEVD)]	657 µM
GPAIEEVD [Hsp70 C-terminal octapeptide, Thr119 to Ala (GPAIEEVD)]	769 µM
ASRMEEVD [Hsp90 C-terminal octapeptide, Thr117 to Ala]	854 µM
TARMEEVD [Hsp90 C-terminal octapeptide, Ser118 to Ala (TARMEEVD)]	344 µM
APTIEEVD [Hsp70 C-terminal octapeptide, Gly117 to Ala]	740 µM
TSRMEEVA [Hsp90 C-terminal octapeptide, Asp124 to Ala]	1400 µM

These molecules were tested against TPR domain of AtToc64 with a C-terminal hexa-histidine tag (AtToc64_TPR-H6) (Arabidopsis thaliana) (UniProt Q9LVH5) (assay: ITC; peptide (6-14 mM) titrated into AtToc64_TPR-H6 (0.1-0.3 mM) in the cell, VP-ITC, 20°C, 25 mM Hepes, 100 mM KCl, pH 7.3; 1:1 model, stoichiometry fixed at N = 1 for the alanine scan). Details: not given.

Molecule	Kd	stoichiometry N
Hsp70 C-terminal octapeptide, alanine mutant APTIEEVD	740 µM	1
Hsp70 C-terminal octapeptide, alanine mutant GATIEEVD	657 µM	1
Hsp70 C-terminal octapeptide, alanine mutant GPAIEEVD	769 µM	1
Hsp70 C-terminal octapeptide, alanine mutant GPTAEEVD		1
Hsp90 C-terminal octapeptide, alanine mutant ASRMEEVD	854 µM	1
Hsp90 C-terminal octapeptide, alanine mutant TARMEEVD	344 µM	1
Hsp90 C-terminal octapeptide, alanine mutant TSAMEEVD	100 µM	1
Hsp90 C-terminal octapeptide, alanine mutant TSRAEEVD	1080 µM	1
Hsp90 C-terminal octapeptide, alanine mutant TSRMEAVD		1
Hsp90 C-terminal octapeptide, alanine mutant TSRMEEVA		1

What follows are molecules tested against T2, TPR domain of AtToc64 with a C-terminal … (assay: ITC; peptide (6-14 mM) titrated into 1.4 ml of protein (0.1-0.3 mM) in the cell; 20°C; 25 mM Hepes, 100 mM KCl, pH 7.3; 30 injections of 10 µL; 1:1 binding model with N, Kd and ΔH floating). Details: both partners purified.

Molecule	stoichiometry N
IEEVD (C-terminal pentapeptide of Hsp70; also called C70_C5; Hsp70 pentapeptide; source: synthetic peptide (Biomatik, >85% purity)) [C-terminal pentapeptide of Hsp70, Hsp70_C5 (IEEVD)]	1.2

Molecular target: T2, TPR domain of AtToc64 with a C-terminal …
Assay: as above
Details: both partners purified
Remark: another data set of the same source

Molecule	dH	stoichiometry N
IEEVD (C-terminal pentapeptide of Hsp70; also called C70_C5; Hsp70 pentapeptide; source: synthetic peptide (Biomatik, >85% purity)) [C-terminal pentapeptide of Hsp70, Hsp70_C5 (IEEVD)]	-1.63 kcal/mol	0.93
MEEVD (C-terminal pentapeptide of Hsp90; also called C90_C5; Hsp90 pentapeptide; source: synthetic peptide (Biomatik, >85% purity)) [C-terminal pentapeptide of Hsp90, Hsp90_C5 (MEEVD)]	-2.68 kcal/mol	1.04
GPTIEEVD (C-terminal octapeptide of Hsp70; also called Hsp70 octapeptide; C70_C8; source: synthetic peptide (Biomatik, >85% purity)) [C-terminal octapeptide of Hsp70 (GPTIEEVD)]	-1 kcal/mol	1.2
TSRMEEVD (C-terminal octapeptide of Hsp90; also called Hsp90 octapeptide; C90_C8; source: synthetic peptide (Biomatik, >85% purity)) [C-terminal octapeptide of Hsp90 (TSRMEEVD)]	-6.18 kcal/mol	0.94
